Results taken from the Immune Epitope Database (IEDB).

How the values were obtained:
Test in all cases: IEDB peptide-MHC binding, purified MHC/competitive/radioactivity; filed as Kd, often an IC50 or EC50 that approximates it; ≥ and ≤ were set here for values at or beyond the usual limits of such assays
HLA-A*02:02 = biological target: HLA-A*02:02
HLA-A*02:03 = biological target: HLA-A*02:03
HLA-A*02:06 = biological target: HLA-A*02:06
HLA-A*03:01 = biological target: HLA-A*03:01
HLA-A*33:01 = biological target: HLA-A*33:01
HLA-A*68:01 = biological target: HLA-A*68:01
HLA-A*11:01 = biological target: HLA-A*11:01
HLA-A*31:01 = biological target: HLA-A*31:01
[1] = source organism: Vaccinia virus WR
[2] = source organism: Dengue virus 3 Martinique/1243/1999
[3] = source organism: Dengue virus 4 Dominica/814669/1981
[4] = source organism: SARS coronavirus Tor2
[5] = source organism: Dengue virus 1 Brazil/97-11/1997
[6] = source organism: Mammarenavirus choriomeningitidis
[7] = source organism: Mammarenavirus tacaribeense
[8] = source organism: Lassa virus Josiah

GINNVQSLI
Kd (HLA-A*02:02; [1]): 474 nM | Kd (HLA-A*02:03; [1]): 378 nM | Kd (HLA-A*02:06; [1]): 1730 nM

MLPESDLDKV
Kd (HLA-A*02:02; [1]): 3.23 nM | Kd (HLA-A*02:03; [1]): 1770 nM | Kd (HLA-A*02:06; [1]): 4.42 nM

RASTTENAA
Kd (HLA-A*02:02; [1]): ≥ 26700 nM | Kd (HLA-A*02:03; [1]): ≥ 66700 nM | Kd (HLA-A*02:06; [1]): 12100 nM

ELTTVFIKYV
Kd (HLA-A*02:02; [1]): 2790 nM | Kd (HLA-A*02:03; [1]): 719 nM | Kd (HLA-A*02:06; [1]): 463 nM

FMTATPPGTA
Kd (HLA-A*02:03; [2]): 2.17 nM

IVFGIYKDNL
Kd (HLA-A*02:02; [1]): 187 nM | Kd (HLA-A*02:03; [1]): 792 nM | Kd (HLA-A*02:06; [1]): 47.8 nM

YVLGVFLRKL
Kd (HLA-A*02:06; [3]): 81.5 nM

IVPDIKLDA
Kd (HLA-A*02:02; [1]): 6390 nM | Kd (HLA-A*02:03; [1]): 15700 nM | Kd (HLA-A*02:06; [1]): 3430 nM

LLSAGIFGA
Kd (HLA-A*02:02; [4]): 12.3 nM | Kd (HLA-A*02:03; [4]): 14.9 nM | Kd (HLA-A*02:06; [4]): 24.6 nM

NLKYSVIVTV
Kd (HLA-A*02:03; [5]): 5.6 nM

KLLNMRDLI
Kd (HLA-A*02:02; [1]): 496 nM | Kd (HLA-A*02:03; [1]): 329 nM | Kd (HLA-A*02:06; [1]): 43.8 nM

AMHSALAGA
Kd (HLA-A*02:03; [3]): 8.58 nM

FAISYCRAFI
Kd (HLA-A*02:02; [1]): 105 nM | Kd (HLA-A*02:03; [1]): 38.3 nM | Kd (HLA-A*02:06; [1]): 34.5 nM

KINEMVDEL
Kd (HLA-A*02:02; [1]): 1.42 nM | Kd (HLA-A*02:03; [1]): 75.6 nM | Kd (HLA-A*02:06; [1]): 317 nM

AIVLEFFMMV
Kd (HLA-A*02:06; [2]): 7.87 nM

IMDKEQLLKI
Kd (HLA-A*02:02; [1]): 311 nM | Kd (HLA-A*02:03; [1]): 288 nM | Kd (HLA-A*02:06; [1]): 1340 nM

ILNAHKDGV
Kd (HLA-A*02:03; [3]): 329 nM

FKMRPMFAV
Kd (HLA-A*02:06; [5]): 55.5 nM

LVSDCASTI
Kd (HLA-A*02:02; [1]): 48.9 nM | Kd (HLA-A*02:03; [1]): 17.2 nM | Kd (HLA-A*02:06; [1]): 61.3 nM

GIIITVGMLI
Kd (HLA-A*02:02; [1]): 3580 nM | Kd (HLA-A*02:03; [1]): 595 nM | Kd (HLA-A*02:06; [1]): 1130 nM

CVDIFTEGKI
Kd (HLA-A*02:02; [1]): ≥ 70000 nM | Kd (HLA-A*02:03; [1]): 17500 nM | Kd (HLA-A*02:06; [1]): ≥ 20900 nM

MLYQLLEAVY
Kd (HLA-A*03:01; [1]): 1460 nM | Kd (HLA-A*33:01; [1]): 15700 nM | Kd (HLA-A*68:01; [1]): 3350 nM | Kd (HLA-A*11:01; [1]): 13700 nM | Kd (HLA-A*31:01; [1]): 10800 nM

SAYLISIFMH
Kd (HLA-A*03:01; [6]): 1230 nM | Kd (HLA-A*33:01; [6]): 2950 nM | Kd (HLA-A*68:01; [6]): ≥ 70100 nM | Kd (HLA-A*11:01; [6]): 5630 nM | Kd (HLA-A*31:01; [6]): 659 nM

IVDTVSALV
Kd (HLA-A*02:02; [4]): 16.6 nM | Kd (HLA-A*02:03; [4]): 528 nM | Kd (HLA-A*02:06; [4]): 42.9 nM

PTEMVDVSMM
Kd (HLA-A*02:02; [1]): 11500 nM | Kd (HLA-A*02:03; [1]): ≥ 70400 nM | Kd (HLA-A*02:06; [1]): 12100 nM

SLIDLQELGK
Kd (HLA-A*03:01; [4]): 183 nM | Kd (HLA-A*33:01; [4]): 1400 nM | Kd (HLA-A*68:01; [4]): 94.5 nM | Kd (HLA-A*11:01; [4]): 178 nM | Kd (HLA-A*31:01; [4]): 75.9 nM

ALDGVLSTFV
Kd (HLA-A*02:02; [4]): 3.26 nM | Kd (HLA-A*02:03; [4]): 27.9 nM | Kd (HLA-A*02:06; [4]): 140 nM

TSSFREKSR
Kd (HLA-A*03:01; [1]): ≥ 65000 nM | Kd (HLA-A*33:01; [1]): 844 nM | Kd (HLA-A*68:01; [1]): 132 nM | Kd (HLA-A*11:01; [1]): 5750 nM | Kd (HLA-A*31:01; [1]): 132 nM

YNCKCCWFA
Kd (HLA-A*02:02; [7]): 16000 nM | Kd (HLA-A*02:03; [7]): ≥ 31800 nM | Kd (HLA-A*02:06; [7]): ≥ 77000 nM

VTTIMFLAR
Kd (HLA-A*03:01; [4]): 329 nM | Kd (HLA-A*33:01; [4]): 167 nM | Kd (HLA-A*68:01; [4]): 84.6 nM | Kd (HLA-A*11:01; [4]): 24.6 nM | Kd (HLA-A*31:01; [4]): 45.4 nM

VSLSAYIIR
Kd (HLA-A*03:01; [1]): 8560 nM | Kd (HLA-A*33:01; [1]): 4000 nM | Kd (HLA-A*68:01; [1]): 3310 nM | Kd (HLA-A*11:01; [1]): 1110 nM | Kd (HLA-A*31:01; [1]): 40.2 nM

MQKESDDYIK
Kd (HLA-A*03:01; [4]): 13200 nM | Kd (HLA-A*33:01; [4]): ≥ 70000 nM | Kd (HLA-A*68:01; [4]): 1550 nM | Kd (HLA-A*11:01; [4]): 364 nM | Kd (HLA-A*31:01; [4]): 5790 nM

VAMLLTHGA
Kd (HLA-A*02:02; [1]): 7160 nM | Kd (HLA-A*02:03; [1]): 628 nM | Kd (HLA-A*02:06; [1]): 726 nM

HTCMSECVR
Kd (HLA-A*03:01; [1]): 3200 nM | Kd (HLA-A*33:01; [1]): 324 nM | Kd (HLA-A*68:01; [1]): 57.8 nM | Kd (HLA-A*11:01; [1]): 67.3 nM | Kd (HLA-A*31:01; [1]): 25.4 nM

DAHKKNLYDH
Kd (HLA-A*03:01; [8]): ≥ 70000 nM | Kd (HLA-A*33:01; [8]): ≥ 70000 nM | Kd (HLA-A*68:01; [8]): ≥ 70100 nM | Kd (HLA-A*11:01; [8]): ≥ 69700 nM | Kd (HLA-A*31:01; [8]): 3430 nM

TLYVKALTK
Kd (HLA-A*03:01; [1]): 1.93 nM | Kd (HLA-A*33:01; [1]): 15500 nM | Kd (HLA-A*68:01; [1]): 185 nM | Kd (HLA-A*11:01; [1]): 23.9 nM | Kd (HLA-A*31:01; [1]): 2920 nM

QTSVNTVVR
Kd (HLA-A*03:01; [1]): ≥ 63600 nM | Kd (HLA-A*33:01; [1]): 7260 nM | Kd (HLA-A*68:01; [1]): 73.3 nM | Kd (HLA-A*11:01; [1]): 923 nM | Kd (HLA-A*31:01; [1]): 4010 nM

FMSHVKSVTK
Kd (HLA-A*03:01; [1]): 7.73 nM | Kd (HLA-A*33:01; [1]): 98.9 nM | Kd (HLA-A*68:01; [1]): 31.6 nM | Kd (HLA-A*11:01; [1]): 3.28 nM | Kd (HLA-A*31:01; [1]): 279 nM

FQRALIFIL
Kd (HLA-A*02:06; source organism: Dengue virus 2 Jamaica/1409/1983): 16.9 nM

IVRTMPNESR
Kd (HLA-A*03:01; [1]): 241 nM | Kd (HLA-A*33:01; [1]): 10700 nM | Kd (HLA-A*68:01; [1]): 401 nM | Kd (HLA-A*11:01; [1]): 16100 nM | Kd (HLA-A*31:01; [1]): 4820 nM

ISSKQYPAGR
Kd (HLA-A*03:01; [1]): 1020 nM | Kd (HLA-A*33:01; [1]): 317 nM | Kd (HLA-A*68:01; [1]): 8.59 nM | Kd (HLA-A*11:01; [1]): 128 nM | Kd (HLA-A*31:01; [1]): 5.62 nM

TQIFEVYWY
Kd (HLA-A*03:01; [1]): 1850 nM | Kd (HLA-A*33:01; [1]): 10900 nM | Kd (HLA-A*68:01; [1]): 733 nM | Kd (HLA-A*11:01; [1]): 353 nM | Kd (HLA-A*31:01; [1]): 3800 nM

LFKNLATSIY
Kd (HLA-A*03:01; [1]): ≥ 41700 nM | Kd (HLA-A*33:01; [1]): ≥ 70000 nM | Kd (HLA-A*68:01; [1]): 19900 nM | Kd (HLA-A*11:01; [1]): ≥ 69800 nM | Kd (HLA-A*31:01; [1]): ≥ 37100 nM

EIMDKEQLLK
Kd (HLA-A*03:01; [1]): 1320 nM | Kd (HLA-A*33:01; [1]): 9850 nM | Kd (HLA-A*68:01; [1]): 5.42 nM | Kd (HLA-A*11:01; [1]): 87.8 nM | Kd (HLA-A*31:01; [1]): ≥ 50900 nM
